In patent EP4751739A1, “ANTIBODY-DRUG CONJUGATE TARGETING C-MET AND MEDICAL USE THEREOF” (Jiangsu Hengrui Pharmaceuticals Co., Ltd., priority 2023, dated 2025):

Legend:
[1] = tested on: human gastric cancer MKN-45 nude mouse subcutaneous xenograft tumor model; assay: In vivo efficacy, MKN-45 xenograft tumor model; design: species or system Balb/c Nude mice; details: 3 mg/kg single i.p. (D0)
Experimental: Female Balb/c Nude mice were subcutaneously inoculated with 5 × 10^6 MKN-45 cells to establish a subcutaneous tumor model. […] Each group was given a single (D0) intraperitoneal injection. The body weight and tumor size of the animals were measured twice weekly during the experiment.

[2] = tested on: human lung cancer EBC-1 cells; assay: Endocytosis by c-Met-positive cells (flow cytometry); assay type: cell-based; details: 20 nM
Experimental: Teli-VcMMAE (namely ABBV-399, in which the toxin is MMAE) and its naked antibody ABT-700 were prepared in-house based on the telisotuzumab vedotin structure disclosed on page 319 of WHO Drug Information, Vol. 30, No. 2, 2016.
The cell density was adjusted to 2 × 10^6 cells/mL using a FACS buffer (prepared with PBS 1×, pH 7.2, and 2% FBS). The suspension was added to a 96-well round-bottom plate at 50 µL/well. Groups were set as follows: endocytosis for 0 h, endocytosis for 0.5 h, endocytosis for 2 h, endocytosis for 4 h, and endocytosis for 24 h. A 40 nM (2×) dilution of an antibody or antibody-drug conjugate was added at 50 µL/well. […] A final concentration of 20 nM was achieved. The plate was incubated at 4 °C for 60 min. After the incubation, the plate was centrifuged at 400 g for 5 min, the supernatant was discarded, and the plate was washed twice with 200 µL of FACS Buffer per well. The cells were resuspended in a culture medium and subjected to 0 h, 0.5 h, 2 h, 4 h, or 24 h of endocytosis in an incubator (37 °C, 5% CO2). After different endocytosis periods, the cells were digested with TrypLE™ Express Enzyme to form a single cell suspension. After 1 wash with 200 µL of FACS buffer, a secondary antibody (Alexa Fluor® 647 AffiniPure Mouse Anti-Human IgG(H+L), 1:500, Jackson, 209-605-008) diluted in FACS buffer was added, and the plate was incubated in a dark place at 4 °C for 30 min. The plate was centrifuged at 400 g for 5 min, the supernatant was discarded, and the plate was washed twice with 200 µL of FACS buffer per well. The cells were resuspended in 50 µL of FACS buffer, and 50 µL of 4% paraformaldehyde was then added for fixation. After thorough mixing, the plate was left to stand at 4 °C in a dark place. After all samples were collected, Alexa Fluor® 647 fluorescence signals were detected using a flow cytometer. Data were analyzed using Flowjo software, and gMFI values were calculated. Endocytosis ratio = (0-h endocytosis gMFI - n-h endocytosis gMFI)/0-h endocytosis gMFI. Table 4. Evaluation of endocytosis performance

B1: Teli-VcMMAE: ABBV-399, in which the toxin is MMAE; prepared in-house based on the telisotuzumab vedotin structure (conjugate, chains of the INN, looked up)
VH: QVQLVQSGAEVKKPGASVKVSCKASGYIFTAYTMHWVRQAPGQGLEWMGWIKPNNGLANYAQKFQGRVTMTRDTSISTAYMELSRLRSDDTAVYYCARSEITTEFDYWGQGTLVTVSS
VL: DIVMTQSPDSLAVSLGERATINCKSSESVDSYANSFLHWYQQKPGQPPKLLIYRASTRESGVPDRFSGSGSGTDFTLTISSLQAEDVAVYYCQQSKEDPLTFGGGTKVEIK
modifications: vc-MMAE payload
notes: ABBV-399, in which the toxin is MMAE; prepared in-house based on the telisotuzumab vedotin structure
[1]; D0 (baseline at grouping)
  Mean tumor volume (mm^3, mean ± SEM) D0: 117± 3 mm^3
[1]; D23
  Mean tumor volume (mm^3, mean ± SEM) D23: 1354 ± 327 mm^3
  TGI (%) D23: 40.28%
[2]; 0 h
  Endocytosis ratio%: 0.000%
[2]; 0.5 h
  Endocytosis ratio%: 4.361%
[2]; 2 h
  Endocytosis ratio%: 31.734%
[2]; 24 h
  Endocytosis ratio%: 97.339%
